We go through three proteins from article PMC11850249, “Typical and atypical metabolic characteristics of three iridaceae isoflavone components: in vitro and in silico studies” (Frontiers in Pharmacology, 2025).

Common to all, as to format: in vitro ADME, human
Substrate in data set [1]: COc1cc(-c2coc3cc(O)c(OC)c(O)c3c2=O)cc(O)c1OC
Briefly: Enzyme kinetics with recombinant CYP2C19. The settings on record: other: recombinant CYP2C19, mean ± SE, n = 3; 30.0 °C. On the procedure:
(§1) A series of concentrations (1–300 μM) of tectorigenin, irigenin, or irisflorentin were added to HLMs or recombinant enzymes. Nonlinear regression was performed on the substrate concentration and generation rate of metabolites to investigate the enzymatic kinetic characteristics of these components in the metabolic system. All experiments were carried out in triplicate.
(§2) A Waters AQUITY UPLC system (Waters, Milford, MA, United States) equipped with a Dikma ODS C18 column (150 × 4.6 mm, 5 μm) was used for separation at 30°C. The binary mobile phase consisted of A (an aqueous solution containing 0.1% acetic acid and 2 mM ammonium acetate) and B (acetonitrile) at a flow rate of 1 mL/min. The elution settings were as follows: 0 → 5 min: 10% B → 20% B; 5 min → 20 min: 20% B → 50% B; 20 min → 21 min: 50% B → 60% B; 21 min → 25 min: 60% B → 90% B; 25 min → 25.1 min 90%–10% B; 25.1 min → 30 min 10% B. Flow rate: 1 mL/min 260 nm was used as the detection wavelength. Calibration standard curves were generated using a reaction mixture containing tectorigenin, irigenin, or irisflorentin at a concentration range of 0.03–10 µM. The concentrations of the metabolites were calculated using a standard curve of the substrates.
(§3) GraphPad Prism software 5.0 was used to perform non-linear fitting between the metabolite generation rate (V) and substrate concentration [S]. The appropriateness of the enzyme kinetic model was determined using R ^2 and the Eadie-Hofstee fit. The maximum metabolic rate (Vmax) and Michaelis constant (Km) were obtained for kinetic processes that conformed to the Michaelis–Menten model (Equation 1). For kinetic processes that conform to the sigmoidal kinetics model (Equation 2), Vmax, Hill coefficient (n), and S50, concentrations at 50% Vmax were obtained. Intrinsic clearance (Clint) was calculated according to Equation 3 (for the Michaelis–Menten model) and Equation 4 (for the sigmoidal kinetics model). All data are expressed as mean ± Standard Error (SE). One - way analysis of variance was used to compare the differences between different groups. […]

Substrate in data set [2]: COc1c(O)cc2occ(-c3ccc(O)cc3)c(=O)c2c1O
Briefly: Enzyme kinetics with recombinant CYP2E1. The settings on record: other: recombinant CYP2E1, mean ± SE, n = 3; 30.0 °C. The method, then:
as §1
A Waters AQUITY UPLC system (Waters, Milford, MA, United States) equipped with a Dikma ODS C18 column (150 × 4.6 mm, 5 μm) was used for separation at 30°C. The binary mobile phase consisted of A (an aqueous solution containing 0.1% acetic acid and 2 mM ammonium acetate) and B (acetonitrile) at a flow rate of 1 mL/min. […] The concentrations of the metabolites were calculated using a standard curve of the substrates.
GraphPad Prism software 5.0 was used to perform non-linear fitting between the metabolite generation rate (V) and substrate concentration [S]. The appropriateness of the enzyme kinetic model was determined using R ^2 and the Eadie-Hofstee fit. […] Intrinsic clearance (Clint) was calculated according to Equation 3 (for the Michaelis–Menten model) and Equation 4 (for the sigmoidal kinetics model). All data are expressed as mean ± Standard Error (SE). […]

Substrate in data set [3]: COc1cc(-c2coc3cc4c(c(OC)c3c2=O)OCO4)cc(OC)c1OC
The experiment in a line: Enzyme kinetics with recombinant CYP1A2. Particulars: other: recombinant CYP1A2, sigmoidal kinetics (S50), mean ± SE, n = 3; 30.0 °C. The method, then: as §1, §2, §3

B1: CYP2C19 (Homo sapiens) (protein)
chain: MDPFVVLVLCLSCLLLLSIWRQSSGRGKLPPGPTPLPVIGNILQIDIKDVSKSLTNLSKIYGPVFTLYFGLERMVVLHGYEVVKEALIDLGEEFSGRGHFPLAERANRGFGIVFSNGKRWKEIRRFSLMTLRNFGMGKRSIEDRVQEEARCLVEELRKTKASPCDPTFILGCAPCNVICSIIFQKRFDYKDQQFLNLMEKLNENIRIVSTPWIQICNNFPTIIDYFPGTHNKLLKNLAFMESDILEKVKEHQESMDINNPRDFIDCFLIKMEKEKQNQQSEFTIENLVITAADLLGAGTETTSTTLRYALLLLLKHPEVTAKVQEEIERVIGRNRSPCMQDRGHMPYTDAVVHEVQRYIDLIPTSLPHAVTCDVKFRNYLIPKGTTILTSLTSVLHDNKEFPNPEMFDPRHFLDEGGNFKKSNYFMPFSAGKRICVGEGLARMELFLFLTFILQNFNLKSLIDPKDLDTTPVVNGFASVPPFYQLCFIPV
notes: purchased CYPEX (Dundee, United Kingdom)
One may read the kcat as the maximal rate divided by the concentration of active sites. In general, kcat/Km refers to the turnover number divided by the Michaelis constant. With B1, in data set [1], the K0.5 stood at 31.7 ± 2.4 µM, the kcat came out at 0.255 ± 0.005 s⁻¹ and the catalytic efficiency (kcat/Km) came out at 8330 M⁻¹ s⁻¹.

B2: CYP2E1 (Homo sapiens) (protein)
chain: MSALGVTVALLVWAAFLLLVSMWRQVHSSWNLPPGPFPLPIIGNLFQLELKNIPKSFTRLAQRFGPVFTLYVGSQRMVVMHGYKAVKEALLDYKDEFSGRGDLPAFHAHRDRGIIFNNGPTWKDIRRFSLTTLRNYGMGKQGNESRIQREAHFLLEALRKTQGQPFDPTFLIGCAPCNVIADILFRKHFDYNDEKFLRLMYLFNENFHLLSTPWLQLYNNFPSFLHYLPGSHRKVIKNVAEVKEYVSERVKEHHQSLDPNCPRDLTDCLLVEMEKEKHSAERLYTMDGITVTVADLFFAGTETTSTTLRYGLLILMKYPEIEEKLHEEIDRVIGPSRIPAIKDRQEMPYMDAVVHEIQRFITLVPSNLPHEATRDTIFRGYLIPKGTVVVPTLDSVLYDNQEFPDPEKFKPEHFLNENGKFKYSDYFKPFSTGKRVCAGEGLARMELFLLLCAILQHFNLKPLVDPKDIDLSPIHIGFGCIPPRYKLCVIPRS
notes: as for B1
Consider B2, for which, in data set [2], the K0.5 amounted to 130.4 ± 18.8 µM and the kcat is 0.427 ± 0.0267 s⁻¹.

B3: CYP1A2 (Homo sapiens) (protein)
chain: MALSQSVPFSATELLLASAIFCLVFWVLKGLRPRVPKGLKSPPEPWGWPLLGHVLTLGKNPHLALSRMSQRYGDVLQIRIGSTPVLVLSRLDTIRQALVRQGDDFKGRPDLYTSTLITDGQSLTFSTDSGPVWAARRRLAQNALNTFSIASDPASSSSCYLEEHVSKEAKALISRLQELMAGPGHFDPYNQVVVSVANVIGAMCFGQHFPESSDEMLSLVKNTHEFVETASSGNPLDFFPILRYLPNPALQRFKAFNQRFLWFLQKTVQEHYQDFDKNSVRDITGALFKHSKKGPRASGNLIPQEKIVNLVNDIFGAGFDTVTTAISWSLMYLVTKPEIQRKIQKELDTVIGRERRPRLSDRPQLPYLEAFILETFRHSSFLPFTIPHSTTRDTTLNGFYIPKKCCVFVNQWQVNHDPELWEDPSEFRPERFLTADGTAINKPLSEKMMLFGMGKRRCIGEVLAKWEIFLFLAILLQQLEFSVPPGVKVDLTPIYGLTMKHARCEHVQARLRFSIN
notes: as for B1
Consider B3, for which, in data set [3], the K0.5 came out at 38.5 ± 2.5 µM, the turnover number (kcat) amounted to 1.77 ± 0.0467 s⁻¹ and the kcat/Km amounted to 25000 M⁻¹ s⁻¹.
